Assay results reported in patent publication US20200079854A1 (Johns Hopkins, published 2020).

Assays:
[1] = target: KRAS wt(7-16) peptide … with HLA-A11 and b2M on peptide-pulsed Hs611.T cells (human); assay: flow cytometry, phage-displayed scFv on peptide-pulsed Hs611.T cells (FIG. 11)
Procedure: (§1) Cells were stained with 10 μL of precipitated phage per 100 μL of cells, washed and stained with rabbit anti-M13 antibody, then washed and stained with anti-Rabbit-PE antibody. Cells were stained with a live/dead Near-IR dye, washed, and analyzed by an LSRII flow cytometer.
(§2) The pulsed cells were pelleted, washed once in cold stain buffer (PBS containing 0.5% BSA, 2 mM EDTA, and 0.1% sodium azide), and resuspended in 100 μL of stain buffer. Phage staining was performed on ice with 10 uL (approximately 1×10⁹) phage for 1 hour in 100 uL total volume, followed by one 4 mL wash in cold stain buffer. Cells were then stained with 1 uL of rabbit anti-M13 antibody (Pierce, Rockford, Ill.) in 100 uL total volume on ice for 1 hour and washed once with 4 mL of cold stain buffer. Cells were stained with anti-rabbit-PE (Biolegend) on ice for 1 hour in 100 uL total volume, followed by incubation with LIVE/DEAD Fixable Near-IR Dead Cell Stain (Thermo Fisher) for 10 min at room temperature per manufacturer's instructions. Cells were washed once in 4 mL of stain buffer followed by resuspension in 300 uL of stain buffer before analysis. Stained cells were analyzed using an LSRII flow cytometer (Becton Dickinson, Mansfield, Mass.).

[2] = target: p53 wt(245-254) peptide … with HLA-A2 and b2M on peptide-pulsed T2 cells (human); assay: flow cytometry, phage-displayed scFv on peptide-pulsed T2 cells (FIG. 4)
Procedure: as §1, §2

[3] = target: T1, IDH2 wt peptide (…) HLA-B7 biotinylated monomer (biotinylated (site not given)); assay: phage ELISA on monomer-coated streptavidin plate (FIG. 1)
T1 construct: also called wt version of the peptide of interest in complex with the same HLA allele

[4] = target: control 1 peptide (…, artificial sequence) HLA-B7 biotinylated monomer (biotinylated (site not given)); assay: as above
[5] = target: control 3 peptide (…, a different peptide from wt IDH2) HLA-B7 biotinylated monomer (biotinylated (site not given)); assay: as above
[6] = target: T2, IDH2 wt(134-143) peptide … with HLA-B7 and b2M on cells (human); assay: flow cytometry, phage-displayed scFv on peptide-pulsed RPMI-6666 cells (FIG. 3)
T2 construct: peptide-pulsed RPMI-6666 cells in flow cytometry
Procedure: as §1, §2

Binder | binding result [1] | binding result [2] | further results
KRAS_G12V_A11V10 (scFv) scFv: DIQMTQSPSSLSASVGDRVTITCRASQDVNTAVAWYQQKPGKAPKLLIYSASFLYSGVPSRFSGSRSGTDFTLTISSLQPEDFATYYCQQYEYYPITFGQGTKVEIKRTGGGSGGGGSGGGASEVQLVESGGGLVQPGGSLRLSCAASGFNFFSTVIHWVRQAPGKGLEWVAEIYPWSGSTYYADSVKGRFTISADTSKNTAYLQMNSLRAEDTAVYYCSRSRSSNYYFDVWGQGTLVTVSS | no binding |  | 
KRAS_G12V_A11_V3 (scFv) scFv: DIQMTQSPSSLSASVGDRVTITCRASQDVNTAVAWYQQKPGKAPKLLIYSASFLYSGVPSRFSGSRSGTDFTLTISSLQPEDFATYYCQQSSYTPITFGQGTKVEIKRTGGGSGGGGSGGGASEVQLVESGGGLVQPGGSLRLSCAASGFNISQGGIHWVRQAPGKGLEWVAYVYPGGGQTNYADSVKGRFTISADTSKNTAYLQMNSLRAEDTAVYYCSRGYDYSAFDYWGQGTLVTVSS | no binding |  | 
p53_R248W_A2_c12 (scFv) scFv: DIQMTQSPSSLSASVGDRVTITCRASQDVNTAVAWYQQKPGKAPKLLIYSASFLYSGVPSRFSGSRSGTDFTLTISSLQPEDFATYYCQQYSYAPITFGQGTKVEIKRTGGGSGGGGSGGGASEVQLVESGGGLVQPGGSLRLSCAASGFNIGYYTMHWVRQAPGKGLEWVAEVSPWSYSTSYADSVKGRFTISADTSKNTAYLQMNSLRAEDTAVYYCSRDHWDEAFDVWGQGTLVTVSS |  | no binding | 
IDH2_R140Q_B7_D4 (scFv) scFv: DIQMTQSPSSLSASVGDRVTITCRASQDVNTAVAWYQQKPGKAPKLLIYSASFLYSGVPSRFSGSRSGTDFTLTISSLQPEDFATYYCQQYSYSPPTFGQGTKVEIKRTGGGSGGGGSGGGASEVQLVESGGGLVQPGGSLRLSCAASGFNISDTYIHWVRQAPGKGLEWVASISPRTGYNRYADSVKGRFTISADTSKNTAYLQMNSLRAEDTAVYYCSRAYYSYAYAMDVWGQGTLVTVSS |  |  | binding result [3]: no binding; binding result [4]: no binding; binding result [5]: no binding; binding result [6]: no binding
p53_R248QW_A2_c114 (scFv) scFv: DIQMTQSPSSLSASVGDRVTITCRASQDVNTAVAWYQQKPGKAPKLLIYSASFLYSGVPSRFSGSRSGTDFTLTISSLQPEDFATYYCQQYLYQPWTFGQGTKVEIKRTGGGSGGGGSGGGASEVQLVESGGGLVQPGGSLRLSCAASGFNIDYYGMHWVRQAPGKGLEWVASLYGGSDSTDYADSVKGRFTISADTSKNTAYLQMNSLRAEDTAVYYCSRQYSAYFDYWGQGTLVTVSS |  | no binding | 
p53_R248QW_A2_c117 (scFv) scFv: DIQMTQSPSSLSASVGDRVTITCRASQDVNTAVAWYQQKPGKAPKLLIYSASFLYSGVPSRFSGSRSGTDFTLTISSLQPEDFATYYCQQGLYYPWTFGQGTKVEIKRTGGGSGGGGSGGGASEVQLVESGGGLVQPGGSLRLSCAASGFNVSYSSIHWVRQAPGKGLEWVAEIWPDSGQTWYADSVKGRFTISADTSKNTAYLQMNSLRAEDTAVYYCSRSSYFDAMDYWGQGTLVTVSS |  | no binding | 
KRAS_G12V_A11_V24 (scFv) scFv: DIQMTQSPSSLSASVGDRVTITCRASQDVNTAVAWYQQKPGKAPKLLIYSASFLYSGVPSRFSGSRSGTDFTLTISSLQPEDFATYYCQQSSVEPWTFGQGTKVEIKRTGGGSGGGGSGGGASEVQLVESGGGLVQPGGSLRLSCAASGFNVSYYSIHWVRQAPGKGLEWVAYIYPWNDYTYYADSVKGRFTISADTSKNTAYLQMNSLRAEDTAVYYCSRGSYYSFDYWGQGTLVTVSS | no binding |  | 
KRAS_G12V_A11_V23 (scFv) scFv: DIQMTQSPSSLSASVGDRVTITCRASQDVNTAVAWYQQKPGKAPKLLIYSASFLYSGVPSRFSGSRSGTDFTLTISSLQPEDFATYYCQQYSYYPITFGQGTKVEIKRTGGGSGGGGSGGGASEVQLVESGGGLVQPGGSLRLSCAASGFNLSTHVMHWVRQAPGKGLEWVAEFYPYVGYTYYADSVKGRFTISADTSKNTAYLQMNSLRAEDTAVYYCSRGYRYQYMDVWGQGTLVTVSS | no binding |  | 
KRAS_G12V_A11_V21 (scFv) scFv: DIQMTQSPSSLSASVGDRVTITCRASQDVNTAVAWYQQKPGKAPKLLIYSASFLYSGVPSRFSGSRSGTDFTLTISSLQPEDFATYYCQQYTYYPITFGQGTKVEIKRTGGGSGGGGSGGGASEVQLVESGGGLVQPGGSLRLSCAASGFNLHGYLMHWVRQAPGKGLEWVAFIYPPNGYTYYADSVKGRFTISADTSKNTAYLQMNSLRAEDTAVYYCSRGVDYAYLDYWGQGTLVTVSS | no binding |  | 
IDH2_R140Q_B7_c129 (scFv, also called IDH2 R140Q(134-143)-B7 c1.29) scFv: DIQMTQSPSSLSASVGDRVTITCRASQDVNTAVAWYQQKPGKAPKLLIYSASFLYSGVPSRFSGSRSGTDFTLTISSLQPEDFATYYCQQGKAYWPATFGQGTKVEIKRTGGGSGGGGSGGGASEVQLVESGGGLVQPGGSLRLSCAASGFNVGHYRMHWVRQAPGKGLEWVAMVSPNGYYTYYADSVKGRFTISADTSKNTAYLQMNSLRAEDTAVYYCSRGYSSYAFDYWGQGTLVTVSS |  |  | binding result [3]: no binding; binding result [4]: no binding; binding result [5]: no binding; binding result [6]: no binding
p53_R248W_A2_c18 (scFv) scFv: DIQMTQSPSSLSASVGDRVTITCRASQDVNTAVAWYQQKPGKAPKLLIYSASFLYSGVPSRFSGSRSGTDFTLTISSLQPEDFATYYCQQYSYSPITFGQGTKVEIKRTGGGSGGGGSGGGASEVQLVESGGGLVQPGGSLRLSCAASGFNLFGYGMHWVRQAPGKGLEWVAEIGPYYYYTSYADSVKGRFTISADTSKNTAYLQMNSLRAEDTAVYYCSRENYDMAMDYWGQGTLVTVSS |  | no binding | 
p53_R248Q_A2_c14 (scFv) scFv: DIQMTQSPSSLSASVGDRVTITCRASQDVNTAVAWYQQKPGKAPKLLIYSASFLYSGVPSRFSGSRSGTDFTLTISSLQPEDFATYYCQQSLYGPFTFGQGTKVEIKRTGGGSGGGGSGGGASEVQLVESGGGLVQPGGSLRLSCAASGFNIAYEYMHWVRQAPGKGLEWVALIGPDSGYTYYADSVKGRFTISADTSKNTAYLQMNSLRAEDTAVYYCSRVWYYSTYGMDYWGQGTLVTVSS |  | no binding | 
p53_R248W_A2_c111 (scFv) scFv: DIQMTQSPSSLSASVGDRVTITCRASQDVNTAVAWYQQKPGKAPKLLIYSASFLYSGVPSRFSGSRSGTDFTLTISSLQPEDFATYYCQQSGYQPDTFGQGTKVEIKRTGGGSGGGGSGGGASEVQLVESGGGLVQPGGSLRLSCAASGFNISWYAMHWVRQAPGKGLEWVAEIWPDSDWTYYADSVKGRFTISADTSKNTAYLQMNSLRAEDTAVYYCSRYYYSSAFDVWGQGTLVTVSS |  | no binding | 
KRAS_G12_VA11_V9 (scFv) scFv: DIQMTQSPSSLSASVGDRVTITCRASQDVNTAVAWYQQKPGKAPKLLIYSASFLYSGVPSRFSGSRSGTDFTLTISSLQPEDFATYYCQQYAYYPITFGQGTKVEIKRTGGGSGGGGSGGGASEVQLVESGGGLVQPGGSLRLSCAASGFNISSTGMHWVRQAPGKGLEWVAELLGGSGNTNYADSVKGRFTISADTSKNTAYLQMNSLRAEDTAVYYCSRGLQYSAMDYWGQGTLVTVSS | no binding |  | 
